# From patent US20230365681A1 (CELGENE, published 2023)
# Numbering of substitutions follows the chain as printed.
# B1: CC-90002 (antibody, V domains shown)
# VH: QMQLVQSGAEVKKTGSSVKVSCKASGFNIKDYYLHWVRQAPGQALEWMGWIDPDQGDTEYAQKFQDRVTITRDRSMSTAYMELSSLRSEDTAMYYCNAAYGSSSYPMDYWGQGTTVTVSS
# VL: NIQMTQSPSAMSASVGDRVTITCKASQDIHRYLSWFQQKPGKVPKHLIYRANRLVSGVPSRFSGSGSGTEFTLTISSLQPEDFATYYCLQYDEFPYTFGGGTKVEIK
# notes: also called anti-CD47 monoclonal antibody CC-90002
# B2: TPP-23 (408_437 Fab with IgG1) (antibody, V domains shown)
# VH: B1 VH with T14P, Q43K, A44G, D66G, M76T, S84R, S88A, M93V, T115L
# VL: B1 VL with A10S, M11L, K24R
# notes: The crystal structure was made with an anti-CD47 Fab of this antibody; also called parental CD47 mAb
# B3: TPP-1361 (bispecific antibody, human IgG1, kappa)
# light 1: NIQMTQSPSSLSASVGDRVTITCQASQDIHRYLSWFQQDPGTVPQHLIYRESRFVDGVPSRFSGSGSGTEFTLTISSLQPEDFATYYCLQYDEFPYTFGGGTKVEIKRTVAAPSVFIFPPSDEELKSGTASVVCWLNNFYPREAKVQWKVDNALQSGNSEESVTEQDSKDSTYSLSSTLELSKADYEKHKVYACEVTHQGLSSPVTKSFNRGEC
# heavy 1: QMQLVQSGAEVKKPGSSVKVSCKASGFNIKDYYLHWVRQAPGQGLEWMGWIDPDQGDTYYAQKFQGRVTITRDRSTSTAYMELASLTAEDTAVYYCNAAYGESSYPMDYWGQGTLVTVSSASTKGPSVFPLAPSSKSTSGGTAALGCLVKDYFPEPVTVSWNSGALTSGVHTFPAVLKSSGLYSLSSVVTVPSSSLGTQTYICNVNHKPSNTKVDKKVEPKSCDKTHTCPPCPAPELLGGPSVFLFPPKPKDTLMISRTPEVTCVVVDVSHEDPEVKFNWYVDGVEVHNAKTKPREEQYNSTYRVVSVLTVLHQDWLNGKEYKCKVSNKALPAPIEKTISKAKGQPREPQVYVLPPSREEMTKNQVSLLCLVKGFYPSDIAVEWESNGQPENNYLTWPPVLDSDGSFFLYSKLTVDKSRWQQGNVFSCSVMHEALHNHYTQKSLSLSPGK
# light 2: QIVLSQSPAILSASPGEKVTMTCRASSSVSYIHWFQQKPGSSPKPWIYATSNLASGVPVRFSGSGSGTSYSLTISRVEAEDAATYYCQQWTSNPPTFGGGTKLEIKRTVAAPSVAIFPPSDERLKSGTASVVCVLNNFYPREAKVQWKVDNALQSGNSQESVTEQDSKDSTYSLSSRLTLSKADYEKHKVYACEVTHQGLSSPVTKSFNRGEC
# heavy 2: QVQLQQPGAELVKPGASVKMSCKASGYTFTSYNMHWVKQTPGRGLEWIGAIYPGNGDTSYNQKFKGKATLTADKSSSTAYMQLSSLTSEDSAVYYCARSTYYGGDWYFNVWGAGTTVTVSAASTKGPSVFPLAPSSKSTSGGTAWLGCEVTDYFPEPVTVSWNSGALTSGVHTFPAVLESSGLYSLSSVVTVPSSSLGTQTYICNVNHKPSNTKVDKKVEPKSCDKTHTCPPCPAPELLGGPSVFLFPPKPKDTLMISRTPEVTCVVVDVSHEDPEVKFNWYVDGVEVHNAKTKPREEQYNSTYRVVSVLTVLHQDWLNGKEYKCKVSNKALPAPIEKTISKAKGQPREPQVYVYPPSREEMTKNQVSLTCLVKGFYPSDIAVEWESNGQPENNYKTTPPVLDSDGSFALVSKLTVDKSRWQQGNVFSCSVMHEALHNHYTQKSLSLSPGK
# notes: Four-chain IgG1 heterodimer; also called CD47xCD20 bispecific
# B4: TPP-1367 (bispecific antibody, human IgG1, kappa)
# anti-CD47 light chain: B3 light 1 with Q24R, D39K, T42K, Q45K, E51A, S52N, F54L, D56S
# anti-CD47 heavy chain: B3 heavy 1 with Q43K, A84R, T87R
# anti-CD20 light chain: B3 light 2
# anti-CD20 heavy chain: B3 heavy 2
# notes: IgG1 1+1 heterodimer; also called CD47/CD20 TPP1367; CD47xCD20 bispecific
# How the values were obtained:
# [1] = target: T1, human CD47 extracellular domain (human, UniProt Q08722 19-139); test: method not given; human CD47, form not stated there
# T1 construct: extracellular domain; also called human CD47 ECD; Hu CD47
# human CD47 on cells [2] = target: T2, human CD47 on cells (human, UniProt Q08722 19-323); test: blocking of human SIRPα binding to OCI-Ly3 cells; competitor SIRPα; TPP-23, parental high-affinity anti-CD47 IgG1; OCI-Ly3 cells
# T2 construct: whole, on cells; also called cell surface CD47; CD47 on Raji, OCI-Ly3, Fadu cells, human RBCs, platelets and blood cells
# human CD47 on cells [3] = target: T2, human CD47 on cells; test: cell-based or functional assay
# [4] = target: T1, human CD47 extracellular domain; test: column HUMAN CD47 KD (µM); no assay named on the sheet, SPR with the CD47 ECD per Example 4
# T1 sequence (Q08722 19-139 limits assumed): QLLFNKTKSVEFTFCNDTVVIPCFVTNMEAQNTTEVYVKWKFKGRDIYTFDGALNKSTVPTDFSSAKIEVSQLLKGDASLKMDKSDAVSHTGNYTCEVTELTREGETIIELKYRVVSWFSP
# T2 sequence (Q08722 19-323): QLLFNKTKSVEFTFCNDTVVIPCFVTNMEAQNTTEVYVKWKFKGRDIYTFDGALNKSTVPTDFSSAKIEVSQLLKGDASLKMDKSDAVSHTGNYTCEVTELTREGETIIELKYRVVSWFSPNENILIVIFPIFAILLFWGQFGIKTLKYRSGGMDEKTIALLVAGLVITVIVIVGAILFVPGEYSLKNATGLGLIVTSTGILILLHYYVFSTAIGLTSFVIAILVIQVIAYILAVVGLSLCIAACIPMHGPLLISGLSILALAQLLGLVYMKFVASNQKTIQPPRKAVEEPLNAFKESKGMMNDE
Binder,Kd [1],IC50 (human CD47 on cells [2]),"EC50 of macrophage phagocytosis of OCI-Ly3 cells, OCI-Ly3 Mφ EC50 (µg/mL) REPEAT (human CD47 on cells [3])","EC50 of macrophage phagocytosis of OCI-Ly3 cells, column OCI-Ly3 Mφ EC50 (human CD47 on cells [3])",Kd [4]
B1,0.54 nM,–,–,–,–
B2,–,0.11 nM,–,–,–
B3,–,–,0.45 µg/mL,0.5 µg/mL,2530 nM
B4,–,–,0.046 µg/mL,0.064 µg/mL,430 nM
